Test results taken from patent US20250163127A1.
Several values for one entry are separate records, joined by “and”; a condition that tells them apart may be missing. Identical values can stand only once.

Columns and labels:
PD-L1 (human) = test: flow cytometry, CHO cells expressing PD-L1
CD28 (human) = CD28 (human) (UniProt P10747); test: flow cytometry, Jurkat cells (CD28)
CTLA-4 (human) = test: flow cytometry, CHO cells expressing CTLA4
CD226 (human) = target: T1, CD226 (human) (UniProt Q15762); test: flow cytometry, transfected HEK293 cells
T1 sequence: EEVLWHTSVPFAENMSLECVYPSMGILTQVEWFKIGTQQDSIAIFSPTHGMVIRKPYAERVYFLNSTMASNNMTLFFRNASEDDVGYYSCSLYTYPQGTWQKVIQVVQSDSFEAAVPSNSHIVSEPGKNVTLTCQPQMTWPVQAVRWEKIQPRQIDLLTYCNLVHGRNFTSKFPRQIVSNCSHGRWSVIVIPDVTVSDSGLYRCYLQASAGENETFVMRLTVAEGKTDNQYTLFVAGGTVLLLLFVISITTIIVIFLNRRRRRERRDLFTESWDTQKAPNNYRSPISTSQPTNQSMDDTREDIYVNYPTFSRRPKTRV

CD96 (human) = target: T2, CD96 (human) (UniProt P40200); test: flow cytometry, transfected HEK293 cells
T2 sequence: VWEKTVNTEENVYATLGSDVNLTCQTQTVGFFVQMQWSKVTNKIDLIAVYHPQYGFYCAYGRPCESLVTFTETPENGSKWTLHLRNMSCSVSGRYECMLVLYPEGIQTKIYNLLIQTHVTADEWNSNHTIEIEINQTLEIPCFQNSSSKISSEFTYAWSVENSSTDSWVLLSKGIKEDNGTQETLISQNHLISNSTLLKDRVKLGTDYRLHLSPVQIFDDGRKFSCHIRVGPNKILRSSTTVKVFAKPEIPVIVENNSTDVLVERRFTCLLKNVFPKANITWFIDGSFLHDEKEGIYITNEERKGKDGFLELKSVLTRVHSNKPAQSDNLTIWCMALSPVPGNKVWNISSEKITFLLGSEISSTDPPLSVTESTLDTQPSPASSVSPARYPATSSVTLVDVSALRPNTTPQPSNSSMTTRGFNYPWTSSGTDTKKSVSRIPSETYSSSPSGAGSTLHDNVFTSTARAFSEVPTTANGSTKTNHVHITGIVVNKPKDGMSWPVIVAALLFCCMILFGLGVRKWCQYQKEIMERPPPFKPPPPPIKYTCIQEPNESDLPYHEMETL

CD112R (human) = CD112R (human) (UniProt Q6DKI7); test: flow cytometry, transfected HEK293 cells
Chain of CD112R (human) (Q6DKI7 whole entry): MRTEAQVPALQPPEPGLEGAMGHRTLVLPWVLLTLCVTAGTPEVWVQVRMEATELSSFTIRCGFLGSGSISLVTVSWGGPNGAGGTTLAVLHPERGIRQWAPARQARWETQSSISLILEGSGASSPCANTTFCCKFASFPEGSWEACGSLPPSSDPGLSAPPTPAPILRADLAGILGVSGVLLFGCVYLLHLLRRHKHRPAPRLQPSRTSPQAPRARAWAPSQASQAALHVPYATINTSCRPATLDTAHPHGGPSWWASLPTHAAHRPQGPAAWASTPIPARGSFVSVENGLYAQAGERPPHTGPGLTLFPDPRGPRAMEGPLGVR

TIGIT (human) = target: T3, TIGIT (human) (UniProt Q495A1); test: flow cytometry, transfected HEK293 cells
T3 sequence: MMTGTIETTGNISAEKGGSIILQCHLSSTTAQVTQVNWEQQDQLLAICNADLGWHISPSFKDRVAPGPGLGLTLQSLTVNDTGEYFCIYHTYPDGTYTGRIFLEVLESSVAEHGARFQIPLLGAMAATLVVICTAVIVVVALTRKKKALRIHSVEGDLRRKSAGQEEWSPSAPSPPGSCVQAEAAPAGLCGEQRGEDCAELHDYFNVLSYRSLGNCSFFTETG

Chain of PD-L1 (human) (chain, as listed by the source): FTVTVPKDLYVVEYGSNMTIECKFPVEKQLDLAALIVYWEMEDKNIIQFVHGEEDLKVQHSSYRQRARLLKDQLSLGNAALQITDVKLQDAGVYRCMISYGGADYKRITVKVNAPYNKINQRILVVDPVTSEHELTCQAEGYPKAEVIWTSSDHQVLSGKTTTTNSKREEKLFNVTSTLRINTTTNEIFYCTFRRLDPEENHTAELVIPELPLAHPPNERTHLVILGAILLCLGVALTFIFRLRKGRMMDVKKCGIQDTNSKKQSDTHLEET
Chain of wild-type CD155 IgV-Fc (Fc fusion) (chain): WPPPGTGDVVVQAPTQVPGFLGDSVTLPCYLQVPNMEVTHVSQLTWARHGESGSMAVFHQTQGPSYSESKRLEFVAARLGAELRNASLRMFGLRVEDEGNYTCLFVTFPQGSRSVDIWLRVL
Chain of CTLA-4 (human) (chain, as listed by the source): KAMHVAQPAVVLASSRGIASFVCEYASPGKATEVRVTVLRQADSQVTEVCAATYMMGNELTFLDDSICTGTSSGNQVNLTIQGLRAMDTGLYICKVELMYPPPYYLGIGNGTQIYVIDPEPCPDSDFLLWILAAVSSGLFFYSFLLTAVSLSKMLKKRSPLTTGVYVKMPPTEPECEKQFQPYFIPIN

| MFI at 33.3 nM (PD-L1 (human)) [MFI] | MFI at 33.3 nM (CD28 (human)) [MFI] | MFI at 33.3 nM (CTLA-4 (human)) [MFI] | other results | Substance |
| --- | --- | --- | --- | --- |
| 26500 |  |  |  | variant CD80 E35D/K37E/M47V/N48D/L85Q/D90N (Fc fusion) |
| 549 |  |  |  | variant CD80 E35D/D46E/M47V/A71D (Fc fusion) |
| 37100 | 6240 | 212000 | Fold change to WT CD80 (PD-L1 (human)): 3.13 fold; Fold change to WT CD80 (CD28 (human)): 0.35 fold | variant CD80 E35D/M47V/A71G/E88D (Fc fusion) |
|  | 527 |  |  | variant CD80 V22D/E35D/M47L/L70M/L97Q (Fc fusion) |
| 19400 |  |  |  | variant CD80 E35D/M38T/D46E/M47V/N48S (Fc fusion) |
|  |  | 208000 |  | variant CD80 E35D/T41S/M43I/A71G/D90G (Fc fusion) |
| 32400 |  | 275000 |  | variant CD80 E35D/D46E/M47V/A71D/D90G (Fc fusion) |
| 36200 | 6360 |  |  | variant CD80 E35D/M47V/A71G (Fc fusion) |
| 693 |  | 226000 |  | variant CD80 E35D/M47V/T62A/A71D/K93E (Fc fusion) |
| 53400 | 2160 | 341000 | Fold change to WT CD80 (PD-L1 (human)): 4.49 fold; Fold change to WT CD80 (CD28 (human)): 0.12 fold | variant CD80 A26E/E35D/M47L/A71G (Fc fusion) |
|  | 10400 |  |  | variant CD80 Q27H/E35D/D46V/M47L/A71G (Fc fusion) |
| 35500 | 692 |  |  | variant CD80 E35D/M47V/N48T/L85Q (Fc fusion) |
| 21400 |  | 2680 |  | variant CD80 Q33R/E35D/M47V/N48K/L85M/F92L (Fc fusion) |
| 29800 | 15500 |  |  | variant CD80 E35D/M47I/Y87Q/K89E (Fc fusion) |
|  | 542 | 256000 |  | variant CD80 V22D/E35D/M47L/L85Q (Fc fusion) |
| 11900 | 1290 | 226000 | Fold change to WT CD80 (CD28 (human)): 0.07 fold; Fold change to WT CD80 (CTLA-4 (human)): 1.44 fold | variant CD80 E35D/M42V/M47V/E52D/L85Q (Fc fusion) |
| 52400 | 3540 | 231000 | Fold change to WT CD80 (CD28 (human)): 0.2 fold; Fold change to WT CD80 (CTLA-4 (human)): 1.47 fold | variant CD80 H18Y/A26E/E35D/M47L/L85Q/D90G (Fc fusion) |
| 34100 |  | 184000 |  | variant CD80 E35D/A71G (Fc fusion) |
|  | 1440 |  |  | variant CD80 E35D/M47L/A71G/L85Q (Fc fusion) |
| 43900 |  | 205000 |  | variant CD80 I30V/E35D/M47V/A71G/A91V (Fc fusion) |
| 21800 |  | 204000 |  | variant CD80 E35D/M38T/M43V/M47V/N48R/L85Q (Fc fusion) |
| 44400 | 2840 |  |  | variant CD80 E35D/T41S/M43I/M47V/A71G (Fc fusion) |
|  |  | 261000 |  | variant CD80 H18Y/E35D/N48K (Fc fusion) |
| 19200 |  | 278000 |  | variant CD80 E35D/M43I/M47V/K89N (Fc fusion) |
|  |  |  | MFI at 100 nM (CD226 (human)): 2320 and 2370 and 4690; MFI at 100 nM (CD96 (human)): 1890 and 1680 and 3270; fold increase to WT ECD (CD96 (human)): 0.02 fold; MFI at 100 nM (CD112R (human)): 2170 and 1740 and 2940; fold increase to WT ECD (CD112R (human)): 1.22 fold and 0.98 fold and 1.65 fold; MFI at 100 nM (TIGIT (human)): 1960 and 2180 and 4690; fold increase to WT ECD (TIGIT (human)): 0 fold | wild-type CD155 IgV-Fc (Fc fusion) |
|  | 3100 | 209000 |  | variant CD80 E35D/T41S/M43I/M47L/A71G (Fc fusion) |
|  |  |  | MFI at 100 nM (CD226 (human)): 2210; MFI at 100 nM (CD96 (human)): 1830; fold increase to WT ECD (CD96 (human)): 0.02 fold; MFI at 100 nM (CD112R (human)): 1760; fold increase to WT ECD (CD112R (human)): 0.99 fold; MFI at 100 nM (TIGIT (human)): 4320 | variant CD155 IgV-Fc, S52L, L104E (Fc fusion) |
| 137000 |  |  |  | variant CD80 E35D/D46V/M47L/V68M/L85Q/E88D (Fc fusion) |
